Our source for the volume fraction of the complex in solution (SAXS, OLIGOMER), Kd and dH values is article PMC4353693.

In test [1] the target is actin binding domain of plectin isoform 1a (P1aABD). Briefly: SAXS.
The target is the same in test [2]. Description: ITC. On the technique in general: In ITC the heat of successive injections is recorded.

A word on the Kd: it is the free concentration of one partner at which half of the binding sites on the other are occupied at equilibrium, for simple one-to-one binding. A higher Kd goes with weaker binding.

B1: first two FnIII domains of integrin β4 (β4Fn12; 1126–1355) (domain or fragment)
chain: DLGAPQNPNAKAAGSRKIHFNWLPPSGKPMGYRVKYWIQGDSESEAHLLDSKVPSVELTNLYPYCDYEMKVCAYGAQGEGPYSSLVSCRTHQEVPSEPGRLAFNVVSSTVTQLSWAEPAETNGEITAYEVCYGLVNDDNRPIGPMKKVLVDNPKNRMLLIENLRESQPYRYTVKARNGAGWGPEREAIINLATQPKRPMSIPIIPDIPIVDAQSGEDYDSFLMYSDDVLR
For the molecule B1, in test [1], the volume fraction of the complex in solution (SAXS, OLIGOMER) turned out to be 54%. In test [2], this molecule displayed a Kd of 41.7 µM and a dH of 15.4 kJ/mol.
